Experiment [1] addresses FliF (flagellar MS-ring protein) from Salmonella enterica serovar Typhimurium (Salmonella enterica serovar Typhimurium) (UniProt P15928). The experiment is described as follows: cryo-EM structure.
For experiment [2] the target is unchanged. The experiment is described as follows: cryo-EM structure. This is another data set of the same source.

Like-named read-outs stand apart in the source and are kept apart here.

A word on the stoichiometry N: it is the number of molecules, sites or subunits per partner or assembly. As to “FliF (flagellar MS-ring protein) from Salmonella enterica serovar Typhimurium (from UniProt P15928 1-560) (natural protein)”, the stoichiometry N in experiment [1] was found to be 33; in experiment [2], 34.

(Values after doi:10.1101/718072.)
